Test results published in PMC10160976 (Proceedings of the National Academy of Sciences of the …, 2023).

T1: human LPL^S132A/R297A (inactive lipoprotein lipase mutant) (human, UniProt P06858 28-475, S132A | R297A)
T1 sequence (looked up): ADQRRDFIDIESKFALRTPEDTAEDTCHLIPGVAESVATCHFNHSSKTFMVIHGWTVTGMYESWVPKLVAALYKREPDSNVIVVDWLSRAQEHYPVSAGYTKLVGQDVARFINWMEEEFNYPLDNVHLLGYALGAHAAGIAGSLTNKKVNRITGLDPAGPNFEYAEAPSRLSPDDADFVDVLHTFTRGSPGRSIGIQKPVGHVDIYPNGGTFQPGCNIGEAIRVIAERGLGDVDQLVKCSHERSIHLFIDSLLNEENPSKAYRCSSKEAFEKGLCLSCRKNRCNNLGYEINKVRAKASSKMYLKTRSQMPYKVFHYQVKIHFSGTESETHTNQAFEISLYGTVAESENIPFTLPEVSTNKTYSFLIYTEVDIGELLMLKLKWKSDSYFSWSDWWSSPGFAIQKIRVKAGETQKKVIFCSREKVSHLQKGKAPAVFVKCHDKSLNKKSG


Assays:
[1] = target: T1, human LPL^S132A/R297A (inactive …); assay: HDX-MS
[2] = target: T1, human LPL^S132A/R297A (inactive …); assay: cell-based or functional assay

Row | Binder | binding result [1] | onset of LPL aggregation (turbidity, proxy for Tm) against APOC2^Q70E [2] [°C]
1 | soluble truncated human GPIHBP1 (residues 1 to 131) (domain or fragment, UniProt Q8IV16 21-151, looked up) QTQQEEEEEDEDHGPDDYDEEDEDEVEEEETNRLPGGRSRVLLRCYTCKSLPRDERCNLTQNCSHGQTCTTLIAHGNTESGLLTTHSTWCTDSCQPITKTVEGTQVTMTCCQSSLCNVPPWQSSRVQDPTG | binds | –
2 | APOC2^wt (apolipoprotein C2, N-terminal 6xHis-tag) (natural protein, UniProt P02655 23-101, looked up) TQQPQQDEMPSPTFLTQVKESLSSYWESAKTAAQNLYEKTYLPAVDEKLRDLYSKSTAAMSTYTGIFTDQVLSVLKGEE | – | > 20
